Reference: article PMC5719983, “The Cryoelectron Microscopy Structure of the Type 1 Chaperone-Usher Pilus Rod” (Structure(London, England:1993), 2017)

Target: the molecule itself
Assay: co-sedimentation; in vitro assembly of FimA monomers to pilus rods: 50 μM FimA monomer in 20 mM acetic acid-NaOH pH 5.0, 150 mM NaCl, 7 days; rods pelleted at 186'000 x g, 10 min, 4°C

B1: Mature FimA without its natural signal sequence (159 residues), refolded FimA monomer (natural protein)
chain: AATTVNGGTVHFKGEVVNAACAVDAGSVDQTVQLGQVRTASLAQEGATSSAVGFNIQLNDCDTNVASKAAVAFLGTAIDAGHTNVLALQSSAAGSATNVGVQILDRTGAALTLDGATFSSETTLNNGTNTIPFQARYFATGAATPGAANADATFKVQYQ
notes: the N-terminal methionine added for cytoplasmic expression was cleaved off quantitatively (measured 15826.0 Da). numbers count on: the mature protein; also called pili assembled in vitro
- binding result: binds
